Results as given in US20180142030A1.

Legend:
Assay in all cases: method not stated for Table 5; Fc variant against Fcγ receptor
FcγRIIa-H131 (human) = FcγRIIa-H131 (human) (UniProt P12318)
FcγRIIb (human) = FcγRIIb (human) (UniProt P31994)
FcγRIIa-R131 (human) = FcγRIIa-R131 (human) (UniProt P12318)
FcγRIIa-R131 (human), sequence (P12318 34-218 H167R limits assumed): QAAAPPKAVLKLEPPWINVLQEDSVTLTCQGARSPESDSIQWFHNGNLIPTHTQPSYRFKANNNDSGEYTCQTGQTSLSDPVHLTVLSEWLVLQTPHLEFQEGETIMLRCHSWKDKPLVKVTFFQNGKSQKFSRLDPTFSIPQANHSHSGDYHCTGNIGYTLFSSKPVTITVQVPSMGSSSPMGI

FcγRIIb (human), sequence (P31994 43-217 limits assumed): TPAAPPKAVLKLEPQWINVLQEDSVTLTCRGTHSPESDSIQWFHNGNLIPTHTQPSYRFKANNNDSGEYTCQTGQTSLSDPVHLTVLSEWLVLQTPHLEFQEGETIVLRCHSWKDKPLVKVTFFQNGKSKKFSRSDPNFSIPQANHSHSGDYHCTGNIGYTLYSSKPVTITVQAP
FcγRIIa-H131 (human), sequence (P12318 34-218 limits assumed): as the sequence (P12318 34-218 H167R limits assumed) above, with R134H counted along it

Row | Substance | Kd (FcγRIIa-H131 (human)) | Kd (FcγRIIb (human)) | Kd (FcγRIIa-R131 (human))
1 | IgG1f Fc sequence variant (Table 5) (antibody) | 530 nM | 3900 nM | 850 nM
2 | P238D Fc sequence variant (Table 5) (antibody) | – | 950 nM | –
3 | SE Fc sequence variant (Table 5) (antibody) | 520 nM | 98 nM | 22 nM
4 | SELF Fc sequence variant (Table 5) (antibody) | – | – | 2 nM
